Square brackets hold non-standard residues; d marks the D form. Ends that are not written are not given here. * marks the point of attachment. Dnp = O=[N+]([O-])c1ccc(*)c([N+](=O)[O-])c1; Mca = COc1ccc2c(CC(=O)*)cc(=O)oc2c1
Columns and labels:
Assay in all cases: Internally quenched peptide probe cleavage assay
Assay type in all cases: biochemical
Details in all cases: 20 μM internally quenched peptide probe, 20 nM protease, 37° C.
MMP2 = biological target: T1, MMP2 (Homo sapiens, UniProt P08253)
T1 sequence (P08253 110-660): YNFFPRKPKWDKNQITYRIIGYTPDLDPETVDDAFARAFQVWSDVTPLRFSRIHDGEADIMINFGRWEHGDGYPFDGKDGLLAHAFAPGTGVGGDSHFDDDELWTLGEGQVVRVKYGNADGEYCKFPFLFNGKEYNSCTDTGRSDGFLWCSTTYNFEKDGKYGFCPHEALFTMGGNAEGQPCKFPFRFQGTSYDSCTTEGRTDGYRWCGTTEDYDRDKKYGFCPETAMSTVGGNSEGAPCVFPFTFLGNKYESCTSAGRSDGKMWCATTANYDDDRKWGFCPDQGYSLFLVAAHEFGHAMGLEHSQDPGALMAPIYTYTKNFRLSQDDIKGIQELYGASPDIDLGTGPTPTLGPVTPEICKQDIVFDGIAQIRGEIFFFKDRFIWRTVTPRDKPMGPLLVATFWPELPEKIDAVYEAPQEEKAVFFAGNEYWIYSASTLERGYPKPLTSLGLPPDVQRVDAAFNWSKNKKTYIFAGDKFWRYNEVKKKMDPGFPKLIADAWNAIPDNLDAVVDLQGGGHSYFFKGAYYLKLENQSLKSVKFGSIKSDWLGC
From the text: (§1) The study provided herein evaluated the cleavability kinetics (i.e., pM/s and kcat/KM (M^−1s^−1)) of CMs with matrix metalloprotease (MMP) 2 (MMP2), MMP9, and MMP14. The CM AIALY (SEQ ID NO: 5) was presented in an internally quenched peptide probe format, rather than included in an activatable antibody format. In the internally quenched probe, the CM sequence was positioned between a 7-methoxycoumarin-4-acetyl (MCA) fluorophore and a 2,4-dinitrophenyl (DNP) quencher such that cleavage of the CM sequence produces a fluorescence signal. The probe was of the following design: (MCA)-[…](DNP)-D-Arg (SEQ ID NO: 160). The cleavage rates (pM/s) were measured using 20 μM internally quenched peptide probe and 20 nM MMP2, MMP9, or MMP14. Cleavability kinetics (i.e., pM/s and kcat/KM (M^−1s^−1)) were determined in 96- or 384-well plate format at 37° C. in the following buffers: 50 mM Tris-HCl (pH 7.5), 10 mM CaCl2), 150 mM NaCl, 0.05% (w/v) Brij-35 for MMP2 and MMP9 or 50 mM HEPES (pH 6.8), 10 mM CaCl2), 0.5 mM MgCl2, 0.05% (w/v) Brij-35 for MMP14. Cleavability kinetics were determined on an Infinite 200 PRO (Tecan) multimode plate reader using a fluorescence excitation wavelength of 320 nm and an emission wavelength of 405 nm.

MMP9 = MMP9 (Homo sapiens, UniProt P14780)
From the text: as §1

MMP14 = MMP14 (Homo sapiens, UniProt P50281)
From the text: as §1

Chain of MMP9 (P14780 94-707): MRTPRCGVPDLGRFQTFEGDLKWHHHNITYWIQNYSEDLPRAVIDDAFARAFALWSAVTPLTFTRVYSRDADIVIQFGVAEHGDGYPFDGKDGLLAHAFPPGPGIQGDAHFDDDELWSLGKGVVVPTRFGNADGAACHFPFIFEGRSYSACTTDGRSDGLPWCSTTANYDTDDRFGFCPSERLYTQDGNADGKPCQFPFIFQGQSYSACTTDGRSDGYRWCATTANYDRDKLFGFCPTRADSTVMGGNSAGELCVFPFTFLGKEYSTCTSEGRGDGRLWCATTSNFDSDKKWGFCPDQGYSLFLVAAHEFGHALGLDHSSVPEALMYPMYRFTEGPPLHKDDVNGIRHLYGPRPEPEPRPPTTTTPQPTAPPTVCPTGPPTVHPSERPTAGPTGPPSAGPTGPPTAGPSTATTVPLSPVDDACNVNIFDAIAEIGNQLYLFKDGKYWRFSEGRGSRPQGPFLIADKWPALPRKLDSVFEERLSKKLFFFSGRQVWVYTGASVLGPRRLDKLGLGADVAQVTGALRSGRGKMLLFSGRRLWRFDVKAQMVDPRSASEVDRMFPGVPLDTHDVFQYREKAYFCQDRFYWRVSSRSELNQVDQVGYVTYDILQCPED

- Probe Cleavage (pM/s) MMP2 (MMP2): 135 pM/s
- Probe Cleavage (pM/s) MMP9 (MMP9): 87.7 pM/s
- Probe Cleavage (pM/s) MMP14 (MMP14): 145 pM/s
Substance: (MCA)-Gly-Ser-Ala-Ile-Ala-Leu-Tyr-Gly-Gly-Ser-Lys (DNP)-D-Arg (Mca-GSAIALYGGSK(Dnp)[dR])

From US20260049148A1, “PROTEASE-CLEAVABLE MOIETIES AND METHODS OF USE THEREOF” (CytomX Therapeutics, Inc., priority 2022, published 2026)
